Results published in patent publication US20170037124A1 (Regeneron, published 2017).
Values belong to the binder of their own block, whether it stands above or below them.

How the values were obtained:
[1] = molecular target: T1, peptide from the N-terminal coiled-coil region of human ANGPTL3 (hANGPTL3 peptide, SEQ ID NO: 338) (human); test: SPR, captured mAb, 500 nM peptide, 25C
T1 construct: also called hANGPTL3 shift peptide
T1 peptide: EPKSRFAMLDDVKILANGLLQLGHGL

[2] = molecular target: T2, human ANGPTL8 peptide (hANGPTL8 peptide, SEQ ID NO: 337) (human); test: SPR, captured mAb, 500 nM peptide, 25C
T2 construct: also called N-terminal region ANGPTL8 peptide
T2 peptide: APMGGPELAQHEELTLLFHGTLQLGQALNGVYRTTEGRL

[3] = molecular target: T3, peptide from the N-terminal coiled-coil region of human ANGPTL4 (hANGPTL4 peptide, SEQ ID NO: 339) (human); test: SPR, captured mAb, 500 nM peptide, 25C
T3 peptide: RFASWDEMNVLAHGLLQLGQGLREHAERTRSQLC

[4] = molecular target: T4, monkey ANGPTL8 expressed with C-terminal mouse IgG2a Fc tag (MfANGPTL8-mFc; SEQ ID NO: 341) (cynomolgus monkey); test: BLI Octet, captured antigen, 100 nM mAb, 25C
T4 construct: also called cynomolgus monkey ANGPTL8
T4 chain: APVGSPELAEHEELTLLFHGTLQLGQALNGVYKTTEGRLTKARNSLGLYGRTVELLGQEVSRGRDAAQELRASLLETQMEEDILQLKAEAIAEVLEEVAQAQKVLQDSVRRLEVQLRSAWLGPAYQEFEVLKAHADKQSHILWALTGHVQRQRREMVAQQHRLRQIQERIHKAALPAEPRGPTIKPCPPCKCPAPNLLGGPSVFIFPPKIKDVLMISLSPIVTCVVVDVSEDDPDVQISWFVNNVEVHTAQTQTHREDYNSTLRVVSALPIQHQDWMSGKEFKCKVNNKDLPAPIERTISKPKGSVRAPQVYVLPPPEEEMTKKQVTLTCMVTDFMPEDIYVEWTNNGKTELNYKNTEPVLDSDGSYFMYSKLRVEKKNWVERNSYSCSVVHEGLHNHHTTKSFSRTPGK

[5] = molecular target: T5, human ANGPTL8 expressed with C-terminal mouse IgG2a Fc tag (hANGPTL8-mFc; SEQ ID NO: 340) (human); test: BLI Octet, captured antigen, 100 nM mAb, 25C
T5 construct: also called Angiopoietin-like protein 8
T5 chain: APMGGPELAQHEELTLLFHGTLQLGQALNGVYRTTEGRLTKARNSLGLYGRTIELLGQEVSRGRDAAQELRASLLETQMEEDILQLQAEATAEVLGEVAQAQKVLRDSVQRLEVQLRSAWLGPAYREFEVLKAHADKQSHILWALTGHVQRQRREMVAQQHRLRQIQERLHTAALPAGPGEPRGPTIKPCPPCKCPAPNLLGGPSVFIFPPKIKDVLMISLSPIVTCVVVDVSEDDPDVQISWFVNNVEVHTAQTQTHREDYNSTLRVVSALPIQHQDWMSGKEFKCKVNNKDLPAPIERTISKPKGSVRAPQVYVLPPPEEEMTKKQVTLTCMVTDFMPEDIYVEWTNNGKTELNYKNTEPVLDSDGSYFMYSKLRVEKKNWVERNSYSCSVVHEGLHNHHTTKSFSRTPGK

[6] = molecular target: T5, human ANGPTL8 expressed with C-terminal …; test: BLI Octet, captured antigen, 100 nM mAb, 25C
[7] = molecular target: T6, anti-mFc (AMC) Octet biosensor, blank; test: BLI Octet, blank AMC sensor, 100 nM mAb, 25C
T6 construct: Sensor without captured protein, used as blank; also called Blank AMC Sensor
In short: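 Antigen-mFc (human or cynomolgus ANGPTL8; hLDLR-mFc as negative control; one blank sensor) captured to ~1.6 nm from 10 μg/mL over 4 min. Sensors dipped 4 min in 100 nM mAb or isotype control at 25° C. Buffer: 10 mM HEPES pH 7.4, 150 mM NaCl, 0.05% Tween-20, 1 mg/ml BSA, shaken at 1000 rpm.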

[8] = molecular target: T4, monkey ANGPTL8 expressed with …; test: SPR MASS-1, antigen-mFc captured, mAb injected, 25C
Description: (§1) All binding studies were performed in 10 mM HEPES pH 7.4, 150 mM NaCl, 3 mM EDTA, and 0.05% v/v Surfactant Tween-20 (HBS-ET running buffer) at 25° C. The HCA sensor surface was first derivatized by amine coupling goat anti-mouse IgG2a polyclonal antibody (Southern Biotech, #1080-01) onto which was then captured approximately 30 RU ([…]) of human ANGPTL8 expressed with C-terminal mouse IgG2a Fc tag (hANGPTL8-mFc; SEQ ID NO: 340) or monkey ANGPTL8 expressed with C-terminal mouse IgG2a Fc tag (MfANGPTL8-mFc; SEQ ID NO: 341).
(§2) Kinetic association (kₐ) and dissociation (kd) rate constants were determined by fitting the real-time binding sensorgrams to a 1:1 binding model with mass transport limitation using Scrubber 2.0c curve-fitting software. Binding dissociation equilibrium constants (KD) and dissociative half-lives (t½) were calculated from the kinetic rate constants as: […]

[9] = molecular target: T5, human ANGPTL8 expressed with C-terminal …; test: as above
Description: as §1, §2

[10] = molecular target: T4, monkey ANGPTL8 expressed with …; test: SPR MASS-1, antigen-mFc captured, mAb injected, 25C; no dissociation seen, kd fixed at the detection limit
Description: as §1, §2
(§3) To obtain an estimate of the binding affinity the dissociation rate constant, kd, was fixed at the upper detection limit under the experimental conditions, 1.0E-05 1/s.

[11] = molecular target: T5, human ANGPTL8 expressed with C-terminal …; test: as above
Description: as §1, §2, §3

- 500 nM hANGPTL3 peptide Bound (RU) [1]: 0 RU
- 500 nM hANGPTL8 peptide Bound (RU) [2]: 0 RU
- 500 nM hAngPTL4 peptide Bound (RU) [3]: 0 RU
- mAb Binding Response (nm) [4]: 0.02 nm
- mAb Binding Response (nm) [5]: 0.03 nm
- mAb Binding Response (nm) [7]: 0.02 nm
B1: H4H15316P (antibody, human IgG4, V domains shown)
VH: EVQLVESGGGLVQPGRSLRLSCAASGFIFDDYDMHWVRQAPGKGLEWVSGISWNSGSKGYADSVKGRFTISRDNAKNSLYLQMNSLRAEDTALYYCTKGPWDYFDYWGQGTLVTVSS
VL: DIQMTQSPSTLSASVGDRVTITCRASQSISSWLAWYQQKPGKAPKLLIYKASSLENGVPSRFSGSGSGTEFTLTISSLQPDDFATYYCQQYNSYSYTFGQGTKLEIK
notes: H4H prefix: human IgG4 Fc
- binding result [1]: no binding (tested: <9 RU at 500 nM peptide)
- binding result [2]: no binding (tested: <9 RU at 500 nM peptide)
- binding result [3]: no binding (tested: <9 RU at 500 nM peptide)
- binding result [6]: no binding (tested: 100 nM mAb; background 0.03 nm)

- 500 nM hANGPTL3 peptide Bound (RU) [1]: 0 RU
- 500 nM hANGPTL8 peptide Bound (RU) [2]: 0 RU
- 500 nM hAngPTL4 peptide Bound (RU) [3]: 0 RU
- Kd [8]: ≤ 0.086 nM
- kon [8]: 116000 M⁻¹ s⁻¹
- t½ [8]: ≥ 19.2 h
- Kd [9]: ≤ 0.117 nM
- kon [9]: 85000 M⁻¹ s⁻¹
- t½ [9]: ≥ 19.2 h
- mAb Binding Response (nm) [4]: 0.1 nm
- mAb Binding Response (nm) [5]: 0.12 nm
- koff [10]: ≤ 1e-05 s⁻¹
- koff [11]: ≤ 1e-05 s⁻¹
- mAb Binding Response (nm) [7]: 0.03 nm
B2: H4H15341P (antibody, human IgG4, V domains shown)
VH: EVQLVESGGGLVQPGGSLRLSCAASGFTFNNHEMNWVRQAPGKGLEWVSYISSSGNTVTYADFLKGRFTISRDNAKNSLFLQMNSLRDEDTAVYYCARDHLSGTSPLSYWGQGTLVTVSS
VL: DIQMTQSPSSLSASVGDRVTITCQASQDINNYLNWFQQKPGKAPKLLIFDASNLETGVPSRFSGSGSGTDFTFTISSLQPEDIATYFCQQYENLPYTFGQGTKLEIK
notes: H4H prefix: human IgG4 Fc
- binding result [1]: no binding (tested: <9 RU at 500 nM peptide)
- binding result [2]: no binding (tested: <9 RU at 500 nM peptide)
- binding result [3]: no binding (tested: <9 RU at 500 nM peptide)
